Measurements: the supplement of paper PMC9732359
± gives the uncertainty stated by the source.

Assay: protein stability index of a GFP-peptide fusion (yeast GPS) (PSI 1-4); higher = more stable; sorted into four equal gates, so the index is relative within each strain
In short: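 The protein stability index combines read frequencies across sorting gates, each weighted by its gate number and then summed. To obtain those frequencies, a pooled yeast library of GFP fusions to tiled 17-residue yeast protein peptides, on a plasmid also expressing Cherry, was grown to mid-log phase in leucine-free medium. The cells were sorted into four equal gates by GFP/Cherry ratio before plasmid amplification by PCR and Illumina sequencing.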

Sequence | protein stability index (doa10∆) | protein stability index (pdr5∆) | protein stability index (san1∆) | protein stability index (ubr1∆)
TEALLLEHDVEYRPFSK [DIS3] | 3.18 ± 0.095 | 3.08 ± 0.085 | 3.17 ± 0.08 | 3.3 ± 0.082
VTADTVILFDSDWNPQA [ISW2] | 3.08 ± 0.071 | 2.76 ± 0.058 | 2.81 ± 0.089 | 2.52 ± 0.044
VELLDSNDRVNPLIELT [ITC1] | 3.58 ± 0.11 | 2.5 ± 0.11 | 3.28 ± 0.075 | 3.02 ± 0.069
RSISWAPSIGRWYQLIA [YGL100W/SEH1] | 1.26 ± 0.072 | 1.15 ± 0.075 | 1.16 ± 0.12 | 1.11 ± 0.063
LLPQWDDDQIESLKKSP [ARP9] | 3.17 ± 0.085 | 3.15 ± 0.061 | 3.1 ± 0.051 | 3.12 ± 0.052
QAIITERLVEFSNVNEL [YIL149C/MLP2] | 2.72 ± 0.19 | 3.38 ± 0.1 | 3.58 ± 0.15 | 3.31 ± 0.12
VSPTVGKLFSDIKVLKR [YIL149C/MLP2] | 2.96 ± 0.08 | 3.29 ± 0.077 | 3.11 ± 0.06 | 3.17 ± 0.039
ERGHPKDNARIYQVPEK [POP1] | 3.02 ± 0.082 | 3.02 ± 0.1 | 3 ± 0.093 | 3.11 ± 0.05
GETRMKMLNEFVKKTSE [SMC2] | 3.28 ± 0.1 | 3 ± 0.092 | 2.91 ± 0.068 | 3.26 ± 0.082
SAVKRLLHVAVSDSNDD [RPN2] | 2.39 ± 0.11 | 3.06 ± 0.071 | 2.56 ± 0.083 | 2.69 ± 0.063
QPKPLFSFGKSDAAKEP [YOR098C/NUP1] | 2.52 ± 0.07 | 2.6 ± 0.039 | 2.44 ± 0.073 | 2.72 ± 0.085
TKSKEQLASQLVDLKKE [RPL35A] |  |  | 3.12 ± 0.098 | 3.2 ± 0.17
MVLYKRKPILLPDPKPL [ITC1] | 2.88 ± 0.067 | 2.85 ± 0.065 | 2.75 ± 0.067 | 2.66 ± 0.055
QGLKLAKKHKLNAITLD [SMC3] | 2.4 ± 0.21 | 2.64 ± 0.29 |  | 
VSNPLIQRFFALHYLVP [COB] | 1.86 ± 0.054 | 1.88 ± 0.059 | 2.32 ± 0.072 | 1.2 ± 0.041
LSQSSSYLETLTALGKE [MED2] | 3.12 ± 0.097 | 3.04 ± 0.099 | 2.66 ± 0.084 | 2.44 ± 0.07
RTLNIQPEVAVKAAINF [YIL149C/MLP2] | 2.19 ± 0.054 | 2.15 ± 0.045 | 1.84 ± 0.071 | 2.21 ± 0.046
EYAALASLADVMSIESL [FAS1] | 3.07 ± 0.069 | 3.11 ± 0.068 | 3.14 ± 0.069 | 3.07 ± 0.053
EVLEKDAAIVKKYKNKT [YGR119C/NUP57] | 3.15 ± 0.11 | 3.24 ± 0.087 | 3.16 ± 0.071 | 3.1 ± 0.096
DQHVINILWAIYNSASK [YCS4] | 1.69 ± 0.044 | 2.22 ± 0.048 | 1.63 ± 0.077 | 1.59 ± 0.041
ADINSNRLSNPQKNLLL [YOR098C/NUP1] | 3.11 ± 0.069 | 3 ± 0.07 | 2.81 ± 0.065 | 2.88 ± 0.082
FGNSLSNTVNANNYSSN [YDL088C/ASM4] | 2.94 ± 0.084 | 3 ± 0.09 | 3.08 ± 0.072 | 3.18 ± 0.056
PRQLHNTHWGLVCPAET [RPB2] | 1.6 ± 0.089 | 1.7 ± 0.07 | 1.47 ± 0.12 | 1.2 ± 0.088
NYVAVGDVSNLPYLDEL [QCR2] | 3.13 ± 0.087 | 3.19 ± 0.096 | 2.97 ± 0.099 | 3.18 ± 0.051
DVSLLLQRDLFIRLPHW [RGR1] | 2.5 ± 0.087 | 2.51 ± 0.063 | 2.2 ± 0.073 | 2.55 ± 0.083
KVDWAREHFEKTVAVDS [RPL3] | 1.8 ± 0.18 |  | 1.54 ± 0.15 | 1.9 ± 0.15

Sequence | protein stability index (doa10∆) | protein stability index (pdr5∆) | protein stability index (san1∆) | protein stability index (ubr1∆)
YDRATLTQLLSMMSDGI [RPO31] | 2.29 ± 0.062 | 2.44 ± 0.053 | 2.56 ± 0.054 | 1.66 ± 0.038
ASSGPRYIVGVRNSVDR [RPT4] | 1.29 ± 0.12 | 1.42 ± 0.19 |  | 1.37 ± 0.092
SFAIYSSTIDAPAFHTS [SRB8] | 2.21 ± 0.055 | 2.21 ± 0.056 | 2.03 ± 0.065 | 2.25 ± 0.045
IVACELILSGDTTANNG [YJL039C/NUP192] | 2.66 ± 0.067 | 2.46 ± 0.068 | 2 ± 0.077 | 1.7 ± 0.032
AGLGKTNELWARLAILK [YGR119C/NUP57] | 2.38 ± 0.086 | 1.67 ± 0.091 | 2.02 ± 0.2 | 3.56 ± 0.14
THTNLERDEQKRAEKKA [SNF2] | 3.35 ± 0.099 | 3.45 ± 0.11 | 2.77 ± 0.12 | 3.23 ± 0.059
ELENFLDNFETKTEALL [YJL041W/NSP1] | 2.62 ± 0.12 | 2.91 ± 0.14 | 2.72 ± 0.15 | 1.81 ± 0.1
ELIQKYLGDGPRLCRQI [RPT2] |  |  | 2.76 ± 0.2 | 
LKQEIDRGLSIKLNGST [SNU114] | 2.88 ± 0.092 | 3.17 ± 0.11 | 3 ± 0.099 | 2.88 ± 0.09
KRFNIGADPNYRTYSER [RPR2] | 3.08 ± 0.15 | 3.4 ± 0.14 | 2.89 ± 0.28 | 3.35 ± 0.11
MQPFDSGHDDLVHDVVY [YGL100W/SEH1] | 3.23 ± 0.1 | 3.43 ± 0.11 | 3.13 ± 0.084 | 3.26 ± 0.093
TQTFNGSIFTHETTFMT [YML031W/NDC1] | 2.86 ± 0.063 | 2.79 ± 0.066 | 2.84 ± 0.035 | 2.89 ± 0.047
PVLNLDKLWTLIPEDKR [RPL28] | 1.54 ± 0.056 | 1.45 ± 0.058 | 2.04 ± 0.071 | 1.17 ± 0.036
AVGNLGNAVTVTEDGTV [RPL22A] | 1.46 ± 0.062 | 1.96 ± 0.094 | 2.22 ± 0.095 | 1.99 ± 0.094
LGVTYSSPTLATGFGAH [PRE4] | 2.41 ± 0.078 | 2.29 ± 0.12 | 2.48 ± 0.087 | 1.62 ± 0.12
NTGDGSISTYKDILNLA [ECM29] | 3.03 ± 0.083 | 2.97 ± 0.11 | 3.04 ± 0.081 | 3.09 ± 0.079
YGPPGTGKTLLAKAVAA [RPT4] | 2.17 ± 0.069 | 2.23 ± 0.06 | 1.98 ± 0.089 | 1.93 ± 0.05
DVTAIQTWSYLSLYSTD [ECM29] | 1.52 ± 0.038 | 1.91 ± 0.036 | 1.9 ± 0.055 | 1.92 ± 0.036
SSSDFRLHYYPKDPSNV [BRR2] | 3.21 ± 0.066 | 3.29 ± 0.06 | 3.47 ± 0.052 | 3.15 ± 0.042
ILDPQVTRFTTWNGSPF [YJL039C/NUP192] | 1.26 ± 0.09 | 2.03 ± 0.12 | 1.51 ± 0.17 | 2.56 ± 0.12
NRLEIKYHNDLIEKEIQ [SMC1] | 2.35 ± 0.18 | 2.51 ± 0.083 |  | 2.42 ± 0.13
EEAGSPLVYRHELITNI [RPB9] | 3.17 ± 0.076 | 3.39 ± 0.058 | 3.28 ± 0.049 | 3.38 ± 0.06
KSDSQYRFYEYIYSQET [MED1] | 2.81 ± 0.068 | 2.44 ± 0.061 | 2.74 ± 0.12 | 2.58 ± 0.07
ALELDDTVVSRVNEMVQ [ECM29] | 3.16 ± 0.17 |  |  | 3.16 ± 0.1
EDMETQASDPSKKKKNI [RPC53] | 3.27 ± 0.14 | 3.44 ± 0.19 | 3.24 ± 0.16 | 3.33 ± 0.15
VKQEDMPFNDQGIVPDI [RET1] | 2.86 ± 0.084 | 3.06 ± 0.059 | 2.91 ± 0.064 | 3.17 ± 0.043

Sequence | protein stability index (doa10∆) | protein stability index (pdr5∆) | protein stability index (san1∆) | protein stability index (ubr1∆)
LINGHRAPQQSVLQLFQ [SMC2] | 3 ± 0.095 | 2.48 ± 0.069 | 2.5 ± 0.063 | 2.42 ± 0.051
GETMWVPIKSSKSGRIF [RPN13] | 2.3 ± 0.11 | 2.6 ± 0.15 | 2.81 ± 0.068 | 
EVFIGRVKDQDGRVNRF [YJR042W/NUP85] | 3.44 ± 0.2 | 3.28 ± 0.28 | 3.5 ± 0.14 | 3.19 ± 0.17
ILDNINHNGSALLIEVF [ITC1] | 1.13 ± 0.096 | 1.22 ± 0.076 | 1.14 ± 0.13 | 1.22 ± 0.07
DPKSPTKRSIAIVFEEI [YMR129W/POM152] | 2.73 ± 0.074 | 2.97 ± 0.087 | 2.77 ± 0.055 | 2.72 ± 0.078
KLCYVLGVEDITLIDSA [RET1] | 1.58 ± 0.12 | 1.73 ± 0.25 | 1.26 ± 0.27 | 1.74 ± 0.07
QLTEFWTELCQREFKEI [NNF1] | 2.98 ± 0.21 | 3.41 ± 0.16 | 3.06 ± 0.07 | 3.09 ± 0.069
SVSLLNSDIANLRTQVT [SMC1] | 3.04 ± 0.09 | 3.08 ± 0.064 | 3.13 ± 0.096 | 2.56 ± 0.11
LDISVFLLEKAGERKIP [TAF14] | 2.26 ± 0.078 | 2.43 ± 0.072 | 2.44 ± 0.063 | 2.16 ± 0.061
VRELVEKIDGMDVDSVK [RPC82] | 2.99 ± 0.19 | 3.41 ± 0.27 | 3.34 ± 0.11 | 3.3 ± 0.064
LFPEQQTKEIKTERVED [RPL6B] | 3.55 ± 0.074 | 3.29 ± 0.079 | 3.46 ± 0.061 | 3.38 ± 0.063
HDIAYSKDGLPNKVKTE [RRP6] | 2.74 ± 0.14 | 2.51 ± 0.23 | 2.85 ± 0.18 | 3.2 ± 0.29
EAFNDGNENFEDFDVEH [RPO26] | 2.97 ± 0.079 | 3.15 ± 0.086 | 2.92 ± 0.085 | 3.21 ± 0.079
SLAILGMNLLSNLSQNV [SWI1] | 2.44 ± 0.055 | 2.94 ± 0.058 | 2.69 ± 0.052 | 2.81 ± 0.046
DRYGNRYFWLDHNGVPF [ITC1] | 2.8 ± 0.094 | 3.18 ± 0.098 | 2.92 ± 0.051 | 2.78 ± 0.082
QRVCLRSDSYMLHKVLE [RPT6] | 2.84 ± 0.084 | 2.95 ± 0.073 | 2.81 ± 0.067 | 2.84 ± 0.047
EGNAGGDQKTSENRNNI [YOR098C/NUP1] |  | 3.6 ± 0.17 | 3.19 ± 0.17 | 3.36 ± 0.074
PKASSAKFFLNVSDEQL [ITC1] | 3.1 ± 0.094 | 3.18 ± 0.055 | 3.17 ± 0.063 | 3.23 ± 0.075
FGELQFAFLNAMFFGNY [AAR2] | 2.87 ± 0.069 | 2.61 ± 0.085 | 2.94 ± 0.067 | 3 ± 0.064
FNTFWDEKGNEIKVGKQ [ARP9] | 3.24 ± 0.099 | 2.53 ± 0.089 | 2.88 ± 0.089 | 2.52 ± 0.059
NTFNYDVKISNDFFDNG [RPN4] | 1.94 ± 0.08 | 2.3 ± 0.07 | 2.52 ± 0.091 | 2.48 ± 0.072
GLIPYPHHNQSPRNTYQ [RET1] | 2.58 ± 0.078 | 2.77 ± 0.095 | 2.83 ± 0.069 | 2.93 ± 0.069
DEEGIFSRFVDQFIRHV [YCG1] | 2.98 ± 0.16 | 2.79 ± 0.13 | 2.99 ± 0.085 | 2.93 ± 0.06
VGVVFGSGAANENPYNN [COR1] | 3.24 ± 0.15 | 3.23 ± 0.088 | 3.21 ± 0.087 | 3.07 ± 0.12
LQYTALTGSPNNPLVQK [ARP7] | 2.66 ± 0.07 | 2.7 ± 0.064 | 2.34 ± 0.078 | 2.95 ± 0.045
TYNMIDAAAEKRNGDEV [ARP7] | 2.85 ± 0.066 | 3.03 ± 0.07 | 3.13 ± 0.055 | 3.18 ± 0.044
